# In paper doi:10.1101/2022.06.13.495990 (bioRxiv, 2022):
# Molecular target: mCherry-RAB28 (UniProt Q99KL7 1-221)
# Assay: co-IP
binder,measurement,value
FLAG-CFAP418 (natural protein) MAKDLDELLDEVETKFCRLDPLRLDLGERPKGDGGGGSHSGDRNGAQEKETLRSTETFKKEDDLDSLINEIFEEPDFDRKSFQKFKSKSSSNTCVRAPMQGVSKSCSPVYLSGSAIPCGIGTNTSQRACDRLRCVACDFRIVSYNDYMWDKSCDYLFFRNNMPEFHKLKTKLIEKKGARAYACQCSWRTVEELTDLQTDHQLRWVCGKH,fraction of CFAP418 pulled down,~0.1%
